Patent US7387779B2, “Anti-angiogenic proteins and fragments and methods of use thereof” (Beth Israel Deaconess Medical Center, priority 1998, dated 2008)

B1: Tum-4: residues 181 to 244 of Tumstatin (SEQ ID NO:25) (protein)
chain: EFRASPFLECHGRGTCNYYSNSYSFWLASLNPERMFRKPIPSTVKAGELEKIISRCQVCMKKRH
modifications: Tum-4 (amino acids 181-244 of SEQ ID NO10)
B2: Tum-2: residues 1 to 132 of Tumstatin (SEQ ID NO:23) (protein)
chain: GLKGKRGDSGSPATWTTRGFVFTRHSQTTAIPSCPEGTVPLYSGFSFLFVQGNQRAHGQDLGTLGSCLQRFTTMPFLFCNVNDVCNFASRNDYSYWLSTPALMPMNMAPITGRALEPYISRCTVCEGPAIAI
modifications: Tum-2 (amino acids 1-132 of SEQ ID NO10)
B3: Tumstatin-44-131: residues 44 to 131 of full-length Tumstatin (SEQ ID NO:33) (protein)
chain: FSFLFVQGNQRAHGQDLGTLGSCLQRFTTMPFLFCNVNDVCNFASRNDYSYWLSTPALMPMNMAPITGRALEPYISRCTVCEGPAIAI
modifications: Tumstatin-45-132 (amino acids 45-132 of SEQ ID NO10)
B4: endostatin: tumor associated angiogenesis inhibitor used as comparator (protein, UniProt P39060 1572-1754, looked up)
Endostatin: HSHRDFQPVLHLVALNSPLSGGMRGIRGADFQCFQQARAVGLAGTFRAFLSSRLQDLYSIVRRADRAAVPIVNLKDELLFPSWEALFSGSEGPLKPGARIFSFDGKDVLRHPTWPQKSVWHGSDPNGRRLTESYCETWRTEAPSATGQASSLLGGRLLGQSAASCHHAYIVLCIENSFMTASK
modifications: Endostatin
B5: Tumstatin: NC1 domain of the α3 chain of type IV collagen, residues 1-244 (SEQ ID NO:10) (protein, listed as Homo sapiens)
chain: GLKGKRGDSGSPATWTTRGFVFTRHSQTTAIPSCPEGTVPLYSGFSFLFVQGNQRAHGQDLGTLGSCLQRFTTMPFLFCNVNDVCNFASRNDYSYWLSTPALMPMNMAPITGRALEPYISRCTVCEGPAIAIAVHSQTTDIPPCPHGWISLWKGFSFIMFTSAGSEGTGQALASPGSCLEEFRASPFLECHGRGTCNYYSNSYSFWLASLNPERMFRKPIPSTVKAGELEKIISRCQVCMKKRH
B6: Tum-1: residues 54 to 244 of Tumstatin, lacking the N-terminal 53 amino acids (SEQ ID NO:22) (protein)
chain: QRAHGQDLGTLGSCLQRFTTMPFLFCNVNDVCNFASRNDYSYWLSTPALMPMNMAPITGRALEPYISRCTVCEGPAIAIAVHSQTTDIPPCPHGWISLWKGFSFIMFTSAGSEGTGQALASPGSCLEEFRASPFLECHGRGTCNYYSNSYSFWLASLNPERMFRKPIPSTVKAGELEKIISRCQVCMKKRH
modifications: Tum-1 (Tumstatin N-53) (amino acids 54-244 of SEQ ID NO10)
B7: Can-1: N-terminal 114 amino acids of full-length Canstatin (protein, listed as Homo sapiens)
chain: VSIGYLLVKHSQTDQEPMCPVGMNKLWSGYSLLYFEGQEKAHNQDLGLAGSCLARFSTMPFLYCNPGDVCYYASRNDKSYWLSTTAPLPMMPVAEDEIKPYISRCSVCEAPAIA
B8: Canstatin: NC1 domain of the α2 chain of Type IV collagen (SEQ ID NO:6) (protein, listed as Homo sapiens)
chain: VSIGYLLVKHSQTDQEPMCPVGMNKLWSGYSLLYFEGQEKAHNQDLGLAGSCLARFSTMPFLYCNPGDVCYYASRNDKSYWLSTTAPLPMMPVAEDEIKPYISRCSVCEAPAIAIAVHSQDVSIPHCPAGWRSLWIGYSFLMHTAAGDEGGGQSLVSPGSCLEDFRATPFIECNGGRGTCHYYANKYSFWLTTIPEQSFQGSPSADTLKAGLIRTHISRCQVCMKNL

Test system: C-PAE cells
Assay: Endothelial cell proliferation, methylene blue staining
Type: cell-based, bovine
Settings: for inhibition of endothelial cell proliferation by synthetic peptides: 10 μg/ml; for EC50: equimolar comparison, read-out: ED50, anti-proliferative effect; for inhibition of proliferation of C-PAE cells: 15 μg/ml; for Relative Cell No. (%) C-PAE: 15 μg/ml recombinant protein; for inhibition of endothelial cell proliferation, comparison with anti-αvβ3 antibody: increasing equimolar amounts; for reduction of the number of cells: 10% FBS, 5 ng/ml bFGF, 3 ng/ml VEGF, 48 hours, 5 μg/ml and higher
Procedure: A methylene blue staining test was also done. 3,100 cells were added to each well and treated as above, and cells were then counted using the method of Oliver et al. (Oliver, M. H. et al., 1989, J. Cell. Science 92:513-18). All wells were washed one time with […] of 1×PBS and the cells were fixed by adding […] of 10% formalin in neutral-buffered saline (Sigma Chemical Co., St. Louis, Mo., USA) for 30 minutes at room temperature. After formalin removal cells were stained with a solution of 1% methylene blue (Sigma Chemical Co.) in 0.01 M borate buffer (pH 8.5) for 30 minutes at room temperature. After removal of staining solution, the wells were washed 5 times with […] of 0.01 M borate buffer (pH 8.5). Methylene blue was extracted from the cells with […] of 0.1N HCi/ethanol (1:1 mixture) for 1 hour at room temperature. The amount of methylene blue staining was measured on a microplate reader (BioRad, Hercules, Calif., USA) using light absorbance at 655 nm wavelength.
In the methylene-blue staining method, 7000 cells were plated into each well of a 96-well plate, and treated as described above. Cells were then counted using the method of Oliver et al. (1989, J. Cell. Sci. 92:513-8). After 48 hours of treatment, all wells were washed with 100 μl of PBS, and the cells fixed with 10% formalin in neutral-buffered saline (Sigma Chemical Co., St. Louis, Mo., USA). The cells were then stained with 1% methylene blue (Sigma) in 0.01M borate buffer, pH 8.5. Wells were washed with 0.01M borate buffer, and the methylene blue extracted from the cells with 0.1N HCl/ethanol, and the absorbance measured in a microplate reader (Bio-Rad, Hercules, Calif., USA) at 655 nm. Polymyxin B (Sigma) at a final concentration of 5 μg/ml was used to inactivate endotoxin (Liu, S. et al., 1997, Clin. Biochem. 30:455-63).
Proliferation of endothelial cells (C-PAE cells) and WM-164 melanoma cells was assayed by methylene blue staining, as described above in Examples 25 and 34. The results are shown in FIGS. 33A and 33B, which are a pair of graphs showing the effect of increasing concentration (x-axis) of Tumstatin, Tum-1, Tum-2, Tum-3 and Tum-4 on the relative number (y-axis) of C-PAE cells (FIG. 33A) and WM-164 cells (FIG. 33B). […] Tum-4, however, did have anti-proliferative activity in this cell line. […] Only Tum-4 inhibited WM-164 melanoma cells.
For the proliferation assay, Canstatin, Can-1 and Can-2 soluble proteins (0.1-20.0 μg/ml) were added to the growth medium of proliferating C-PAE cells, which were stimulated with 10% FBS in DMEM, in addition to 5 ng/ml bFGF and 3 ng/ml VEGF. The results are shown in FIG. 40, which is a graph showing the effect of increasing concentrations of Canstatin (♦), Can-1 (▪) and Can-2 (▴) (x-axis) on the relative cell number (y-axis) of C-PAE cells. Each concentration of each protein was tested in quadruplicate. Bovine serum albumin (BSA) was used as a control treatment. Polymyxin B was used to control for endotoxin interference, and no differences were found between assays run with and without polymyxin B added to the medium. Cells were allowed to proliferate for 48 hours, and were then fixed, stained and the density read with a Bio-Rad plate reader (Bio-Rad, Hercules, Calif., USA). Canstatin and Can-1 both caused dose-dependent decreases in the percent cell number, and both reduced the number of cells by 80% at concentrations of 5 μg/ml and higher.
An endothelial cell proliferation assay was used to compare the activity of Tumstatin and some of the deletion mutants. Recombinant Tumstatin (28 kDa), Tumstatin-44-131 (12 kDa) and T3 peptide were used in a methylene blue proliferation assay in equimolar concentrations.

Molecule	EC50 [µM]	inhibition of proliferation of C-PAE cells	Relative Cell No. (%) C-PAE (20% FCS) [%]	other results
LQRFTTMPFLFCNVNDVCNF [T3]	2.5	–	–	inhibition of endothelial cell proliferation by synthetic peptides (20% FCS): significantly (p<0.05) inhibit; fold less active than Tumstatin and Tumstatin-44-131 (equimolar concentrations / molar basis): 2.5 fold
GLKGKRGDSGSPATWTTRGF [T1]	–	–	–	inhibition of endothelial cell proliferation by synthetic peptides (20% FCS): did not inhibit endothelial cell proliferation
B1	–	did not inhibit	95.7 ± 3.6	–
B2	–	73.3%	34.3 ± 3.9	–
B3	1	–	–	ED50, inhibition of proliferation (Pichia-expressed, 20% FCS): 5 µg/mL
B4	–	–	–	inhibition of endothelial cell proliferation, comparison with anti-αvβ3 antibody: dose-dependent inhibition
B5	1	78.5%	100.0 ± 3.2	inhibition of endothelial cell proliferation, comparison with anti-αvβ3 antibody: dose-dependent inhibition
B6	–	65.6%	20.5 ± 3.4	–
B7	–	–	–	reduction of the number of cells: 80%
B8	–	–	–	reduction of the number of cells: 80%; treatment level at which dye uptake dropped off to the level seen in unstimulated cells (10% FCS): 0.625 to 1.25 µg/mL
